Assay results: patent US12624112 (MABWELL SHANGHAI BIOSCIENCE, dated 2026)

How the values were obtained:
ST2 on KU812 cells [1] = biological target: T1, ST2 on KU812 cells (UniProt Q01638 19-556, limits assumed); assay: cell-based or functional assay
T1 sequence (looked up): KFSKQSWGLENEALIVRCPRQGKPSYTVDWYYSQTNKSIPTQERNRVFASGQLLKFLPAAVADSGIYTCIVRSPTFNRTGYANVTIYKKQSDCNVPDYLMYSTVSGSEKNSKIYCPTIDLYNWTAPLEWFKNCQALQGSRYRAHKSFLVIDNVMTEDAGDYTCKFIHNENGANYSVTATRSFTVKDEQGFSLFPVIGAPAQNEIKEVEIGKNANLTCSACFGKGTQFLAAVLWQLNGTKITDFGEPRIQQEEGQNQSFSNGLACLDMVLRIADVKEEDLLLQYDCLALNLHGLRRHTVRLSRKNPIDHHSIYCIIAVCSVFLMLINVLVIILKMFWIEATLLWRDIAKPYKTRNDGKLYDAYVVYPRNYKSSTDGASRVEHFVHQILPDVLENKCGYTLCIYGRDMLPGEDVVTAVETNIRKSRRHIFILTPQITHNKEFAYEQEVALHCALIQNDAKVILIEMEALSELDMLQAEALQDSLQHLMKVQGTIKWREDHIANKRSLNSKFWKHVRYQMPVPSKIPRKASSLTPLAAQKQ

ST2 on KU812 cells [2] = biological target: T1, ST2 on KU812 cells; assay: cell-based or functional assay; remark: listed apart in the source
Cyno ST2-fc [3] = biological target: T2, Cyno ST2-fc (cyno; human, UniProt A0A2K5UDB8 19-331); assay: ELISA, coated cyno ST2-fc
T2 construct: also called cyno ST2 fused with a human IgG1 Fc tag at the C-terminus
T2 sequence: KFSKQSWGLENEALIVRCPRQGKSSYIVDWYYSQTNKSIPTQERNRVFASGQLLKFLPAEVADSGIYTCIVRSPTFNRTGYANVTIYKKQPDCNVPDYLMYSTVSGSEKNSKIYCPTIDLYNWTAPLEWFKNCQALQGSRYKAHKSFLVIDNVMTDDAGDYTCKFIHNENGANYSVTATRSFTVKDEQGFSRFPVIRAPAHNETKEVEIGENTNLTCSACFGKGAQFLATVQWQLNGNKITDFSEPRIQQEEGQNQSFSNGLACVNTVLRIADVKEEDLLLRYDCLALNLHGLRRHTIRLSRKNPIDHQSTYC
Method: Cyno ST2-fc was diluted with a coating buffer to 1 μg/mL, added into 96-well plates at 50 μL/well and coated overnight at 4° C. Next day, the coated plates were taken, washed with PB ST for 3 times, and then incubated using a blocking buffer at room temperature for 1 hr. Subsequently, the plates were washed with PBST for 3 times again. Starting at 1000 ng/mL, each murine antibody was diluted 3-fold to obtain serial dilutions of 8 concentrations in total which were then added into the 96-well plates at 50 μL/well. The plates were incubated at room temperature for 1 hr, washed with PB ST for 3 times; and then a goat anti-mouse secondary antibody (1:10000) was added at 50 μL/well into the 96-well plates which subsequently were incubated at room temperature for 1 hr. The 96-well plates were washed with PB ST for 3 times, and TMB was added at 50 μL/well to develop color in dark for 10 min. Afterwards, 2 M sulfuric acid was added to stop reaction; and GD values at 450 nm were read by a microplate reader. It can be seen that the murine antibodies can bind to cyno ST2, with a binding trendency consistent with the binding to human ST2.

Human ST2-his [4] = biological target: T3, Human ST2-his (human, UniProt Q01638 19-328); assay: ELISA, coated human ST2-his
T3 construct: Expressed in CHO-K1; also called human ST2 fused with a 6-histidine tag at the C-terminus
T3 sequence: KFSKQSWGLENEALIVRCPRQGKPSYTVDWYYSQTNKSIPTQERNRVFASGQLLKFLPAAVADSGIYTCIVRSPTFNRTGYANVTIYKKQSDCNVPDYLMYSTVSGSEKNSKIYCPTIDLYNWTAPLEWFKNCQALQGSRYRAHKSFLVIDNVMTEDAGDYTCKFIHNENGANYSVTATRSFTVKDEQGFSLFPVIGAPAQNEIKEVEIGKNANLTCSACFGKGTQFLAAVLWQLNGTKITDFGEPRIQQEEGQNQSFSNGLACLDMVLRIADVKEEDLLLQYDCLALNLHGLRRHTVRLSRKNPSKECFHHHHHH
Method: Human ST2-his was diluted with a coating buffer to 1 μg/mL, added into plates at 50 μL/well, and coated overnight at 4° C. Next day, the coated plates were taken, washed with PBST for 3 times, and then incubated using a blocking buffer at room temperature for 1 hr. Subsequently, the plates were washed with PBST for 3 times again. Starting at 100 ng/mL, each murine antibody was diluted 3-fold to obtain serial dilutions of 8 concentrations in total which were then added into the 96-well plates at 50 μL/well. The plates were incubated at room temperature for 1 hr, washed with PBST for 3 times; and then a goat anti-mouse secondary antibody (1:10000) was added at 50 μL/well into the 96-well plates which subsequently were incubated at room temperature for 1 hr. The 96-well plates were washed with PBST for 3 times, and TMVB was added at 50 μL/well to develop color in dark for 10 min. Afterwards, 2 M sulfuric acid was added to stop reaction; and GD values at 450 nm were read by a micro-plate reader.

Human ST2-fc (human) = Human ST2-fc (human) (UniProt Q01638); assay: competition ELISA, coated ST2-fc, competitor IL33-his
Cyno ST2-fc [5] = biological target: T2, Cyno ST2-fc; assay: SPR Biacore X100, antibody on CM5, cyno ST2-fc analyte
Method: The experiment on the interactions between the anti-human ST2 antibodies and cyno ST2-fc was performed using Biacore X100, and was carried out at 25° C. in HBS-EP (1×) buffer (pH 7.4). Each antibody was immobilized on the surface of CM5 chip using an amino coupling kit. Following the antibody immobilization, a solution of cyno ST2-fc (2-fold gradient dilution from a starting concentration of 8 nM, to obtain 6 concentrations in total; the starting concentration might be increased if the signal of some sample was too low) was injected. Association was monitored for 2 min and dissociation for 10 min, and the sensor surface was regenerated by injecting a solution of glycine at pH 1.5.

Human ST2-his [6] = biological target: T3, Human ST2-his; assay: SPR Biacore X100, antibody on protein A, ST2-his analyte
Method: On the basis of the results of the quantitative screenings of murine antibodies above together, 19 murine antibodies were selected for affinity determination and in vitro pharmacological study. The experiment on the interaction between the anti-human ST2 antibodies and human ST2-his was performed using Biacore X100, and was carried out at 25° C. in HBS-EP (1×) buffer (pH 7.4).
Each anti-human ST2 antibody was diluted to 10 nM and captured on the surface of a protein A chip (for a capture time of 60 s). […] Association was monitored for 4 min and dissociation for 10 min, and the sensor surface was regenerated by injecting a solution of glycine at pH 2.0. Data generated for kinetics and affinity assay were analyzed using BIAevaluation software.

IC50, activation of KU812-NF-κB reporter gene by IL33 (ST2 on KU812 cells [1]): 0.0552 µg/mL
Relative activity (%) compared with CNTO7160, KU812-NF-κB reporter (ST2 on KU812 cells [1]): 454%
Maximum inhibition rate (%), KU812 IL-5 production (ST2 on KU812 cells [2]): 71%
Relative activity (%), KU812 IL-5 production (ST2 on KU812 cells [2]): 98.5%
EC50 (Cyno ST2-fc [3]): 0.0192 µg/mL
Relative activity (%) (Cyno ST2-fc [3]): 127%
EC50 (Human ST2-his [4]): 0.0113 µg/mL
Relative activity (%) compared with CNTO7160 (Human ST2-his [4]): 124%
IC50 (Human ST2-fc (human)): 0.62 µg/mL
Relative activity (%) compared with CNTO7160 (Human ST2-fc (human)): 94.7%
Kd (Cyno ST2-fc [5]): 129 pM
koff (Cyno ST2-fc [5]): 0.000826 s⁻¹
kon (Cyno ST2-fc [5]): 6.41e+06 M⁻¹ s⁻¹
Kd (Human ST2-his [6]): 160 pM
koff (Human ST2-his [6]): 0.0007 s⁻¹
kon (Human ST2-his [6]): 4.38e+06 M⁻¹ s⁻¹
B1: 5888-357H+L (antibody, V domains shown)
VH: QVQLQQSVTELVRPGASVTLSCKASGYRFTDSEMHWVKQTPVHGLEWIGTIDPETGGTVYNQKFKGKAKLTADRSSSTVSMELRSLTSEDSAVYYCTRAFYNDFDDGFAYWGQGTLVTVSA
VL: QIVMTQSPAIMSASPGEKVTLTCSASTSVSYMHWYQQKSGTSPKRWIYDTSKLASGVPARFSGSGSGTSYSLTISSMEAEDAATYYCQQWSSNPLTFGAGTKLELK
notes: murine antibody
